Data from PMC5785977, “A dual role for the N-terminal domain of the IL-3 receptor in cell signalling” (Nature Communications, 2018).
Read-outs that look alike come from different tables or passages of the source. Blank lines part the entries; values can stand above or below the molecule they belong to.

Key:
[1] = molecular target: IL5Rα:βc (Homo sapiens) (UniProt Q01344); settings: cited from earlier work
[2] = molecular target: IL3Rα ECD (Homo sapiens) (UniProt P26951); settings: cited from earlier work
[3] = molecular target: IL3Rα:βc (Homo sapiens) (UniProt P26951); settings: cited from earlier work
[4] = molecular target: IL3Rα ECD (Homo sapiens) (UniProt P26951); test: SPR; settings: cited from earlier work
[5] = molecular target: IL3Rα ECD (Homo sapiens) (UniProt P26951); test: SPR; settings: cited from earlier work; remark: listed apart in the source
[6] = molecular target: IL3Rα ECD (Homo sapiens) (UniProt P26951); test: SPR; settings: cited from earlier work; remark: listed apart in the source
[7] = molecular target: IL3Rα ECD (Homo sapiens) (UniProt P26951); test: SPR; settings: cited from earlier work; remark: listed apart in the source
[8] = molecular target: IL3Rα ECD (Homo sapiens) (UniProt P26951); test: SPR; settings: cited from earlier work; remark: listed apart in the source
[9] = molecular target: GMRα:βc (Homo sapiens) (UniProt P15509); settings: cited from earlier work
GMRα:βc (Homo sapiens), sequence (P15509 23-320): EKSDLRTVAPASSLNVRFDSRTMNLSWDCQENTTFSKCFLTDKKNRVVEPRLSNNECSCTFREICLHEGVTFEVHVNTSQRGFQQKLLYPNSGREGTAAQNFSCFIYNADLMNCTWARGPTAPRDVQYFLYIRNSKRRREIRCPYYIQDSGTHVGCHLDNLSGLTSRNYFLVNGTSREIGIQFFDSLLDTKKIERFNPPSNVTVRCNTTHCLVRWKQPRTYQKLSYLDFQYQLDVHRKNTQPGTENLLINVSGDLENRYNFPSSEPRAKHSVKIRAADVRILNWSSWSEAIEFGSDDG

[10] = molecular target: IL3Rα D197L + βc co-expressed on COS cells (human) (UniProt P26951); test: radioligand binding; saturation binding of radioiodinated (125I) cytokine to transfected COS cells; dissociation constants by EBDA and LIGAND
[11] = molecular target: full-length IL3Rα expressed alone on COS cells (human) (UniProt P26951); test: as above
[12] = molecular target: IL3Rα SP2 + βc co-expressed on COS cells (human) (UniProt P32927); test: as above
[13] = molecular target: IL3Rα C76A,C195A + βc co-expressed on COS cells (human) (UniProt P26951); test: as above
[14] = molecular target: IL3Rα + βc co-expressed on COS cells (human) (UniProt P26951); test: as above
[15] = molecular target: T1, endogenous IL-3 receptor on TF-1 cells (human (endogenous in TF-1), UniProt P26951 19-378; P32927 17-897); test: radioligand binding; saturation binding of radioiodinated (125I) cytokine to TF-1 cells (endogenous receptor); dissociation constants by EBDA and LIGAND; settings: one partner purified
T1 construct: IL-3 receptor α-subunit, endogenous in the human TF-1 erythroleukaemic cell line; beta common (βc) receptor subunit, endogenous in the human TF-1 cell line; the discussion notes that TF-1 cells also express transcripts of the IL3Rα SP2 splice variant; also called TF-1 Endogenous; source: endogenous, on TF-1 cells

[16] = molecular target: IL-3 receptor on TF-1Hi cells (overexpressed IL3Rα) (human | human (endogenous in TF-1)) (UniProt P26951); test: radioligand binding; saturation binding of radioiodinated (125I) cytokine to TF-1Hi cells (overexpressed IL3Rα); dissociation constants by EBDA and LIGAND
[17] = molecular target: T2, IL3Rα + βc co-expressed on CTLL-2 cells (human, UniProt P26951 19-378; P32927 17-897, N144 and R145 to K144); test: radioligand binding; saturation binding of radioiodinated (125I) cytokine to the CTLL-2 cell line expressing IL3Rα and βc; dissociation constants by EBDA and LIGAND; settings: one partner purified
T2 construct: IL-3 receptor α-subunit, human, full-length; the cDNA of the site 1 functional studies in CTLL-2 encodes a splice variant that changes N144 and R145 to K144; beta common (βc) receptor subunit, human, wild-type; also called CTLL-2 IL3Rα + βc; source: CTLL-2 cells, retrovirally transduced, on cells
T2 sequence (looked up) 1: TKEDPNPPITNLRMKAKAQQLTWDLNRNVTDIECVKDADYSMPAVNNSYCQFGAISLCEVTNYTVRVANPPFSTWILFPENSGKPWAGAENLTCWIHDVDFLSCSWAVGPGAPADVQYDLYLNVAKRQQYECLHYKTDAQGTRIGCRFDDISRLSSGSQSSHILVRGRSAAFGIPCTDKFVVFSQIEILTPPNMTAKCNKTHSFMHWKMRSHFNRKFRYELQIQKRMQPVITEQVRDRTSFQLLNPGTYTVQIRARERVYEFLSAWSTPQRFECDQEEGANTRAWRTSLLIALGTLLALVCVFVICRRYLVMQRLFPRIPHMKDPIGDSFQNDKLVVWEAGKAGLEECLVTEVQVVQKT
T2 sequence (looked up) 2: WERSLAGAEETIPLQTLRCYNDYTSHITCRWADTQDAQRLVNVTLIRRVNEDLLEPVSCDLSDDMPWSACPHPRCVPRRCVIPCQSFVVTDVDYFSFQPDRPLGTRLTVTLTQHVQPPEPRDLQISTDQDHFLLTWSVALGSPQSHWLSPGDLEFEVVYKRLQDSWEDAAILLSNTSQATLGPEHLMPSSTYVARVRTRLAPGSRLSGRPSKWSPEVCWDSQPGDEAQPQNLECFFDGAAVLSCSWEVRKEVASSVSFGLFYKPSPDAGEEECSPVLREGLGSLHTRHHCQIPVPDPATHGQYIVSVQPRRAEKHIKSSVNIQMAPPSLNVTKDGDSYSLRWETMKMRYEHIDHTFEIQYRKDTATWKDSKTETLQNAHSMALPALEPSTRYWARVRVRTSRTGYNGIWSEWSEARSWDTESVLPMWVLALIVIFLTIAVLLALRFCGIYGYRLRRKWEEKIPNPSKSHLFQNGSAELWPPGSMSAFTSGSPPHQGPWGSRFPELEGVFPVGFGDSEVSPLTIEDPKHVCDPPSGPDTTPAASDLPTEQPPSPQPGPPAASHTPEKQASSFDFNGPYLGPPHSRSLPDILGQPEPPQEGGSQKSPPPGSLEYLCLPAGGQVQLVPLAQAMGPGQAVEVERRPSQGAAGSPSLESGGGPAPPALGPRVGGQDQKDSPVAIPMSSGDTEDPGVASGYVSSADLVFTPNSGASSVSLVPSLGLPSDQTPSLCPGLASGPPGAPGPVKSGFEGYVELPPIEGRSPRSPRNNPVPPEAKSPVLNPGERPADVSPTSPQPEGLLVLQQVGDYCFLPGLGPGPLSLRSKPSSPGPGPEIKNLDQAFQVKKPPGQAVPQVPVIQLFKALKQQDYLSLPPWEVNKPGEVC

[18] = molecular target: IL3Rα D197L + βc co-expressed on COS cells (human) (UniProt P26951)
[19] = molecular target: IL3Rα SP2 + βc co-expressed on COS cells (human) (UniProt P32927)
[20] = molecular target: IL3Rα C76A,C195A + βc co-expressed on COS cells (human) (UniProt P26951)
[21] = molecular target: IL3Rα + βc co-expressed on COS cells (human) (UniProt P26951)

IL5Rα:βc (Homo sapiens), sequence (Q01344 21-342): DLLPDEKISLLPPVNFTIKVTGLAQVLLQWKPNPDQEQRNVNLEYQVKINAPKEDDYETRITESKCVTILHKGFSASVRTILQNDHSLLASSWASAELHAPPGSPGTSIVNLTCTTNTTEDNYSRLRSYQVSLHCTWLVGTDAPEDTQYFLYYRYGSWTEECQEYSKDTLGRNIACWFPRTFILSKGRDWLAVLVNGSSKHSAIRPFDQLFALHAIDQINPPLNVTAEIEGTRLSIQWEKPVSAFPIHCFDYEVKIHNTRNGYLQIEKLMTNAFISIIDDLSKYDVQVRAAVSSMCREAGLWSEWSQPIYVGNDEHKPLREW

Molecule: IL-5 (from UniProt P05113)
- Kd [1]: 0.2 nM

Molecule: IL-3 (from UniProt P08700)
- Kd [2]: 510 nM
- Kd [3]: 0.2 nM
- Kd [4]: > 5000 nM
- Kd [5]: > 5000 nM
- Kd [6]: > 5000 nM
- Kd [7]: > 5000 nM
- Kd [8]: 220 nM

Molecule: GM-CSF (from UniProt P04141)
- Kd [9]: 0.2 nM

- Kd [10]: 4.37 nM
- Kd [11]: 141 nM
- Kd [12]: 7.61 nM
- Kd [13]: 1.1 nM
- Kd [14]: 0.48 nM
- Kd [15]: 2.06 nM
- Kd [16]: 0.14 nM
- Kd [17]: 0.34 nM
- proliferation of FDH cells co-expressing βc and IL3Rα D197L, ED50 of the IL-3 dose–response [18]: 1.71 ng/mL
- proliferation of FDH cells co-expressing βc and IL3Rα SP2, ED50 of the IL-3 dose–response [19]: 6.94 ng/mL
- proliferation of FDH cells co-expressing βc and IL3Rα C76A,C195A, ED50 of the IL-3 dose–response [20]: 12.2 ng/mL
- proliferation of FDH cells co-expressing βc and wild-type IL3Rα, ED50 of the IL-3 dose–response [21]: 0.29 ng/mL
B1: wild-type human IL-3, residues W13 to Q125 of the mature peptide with a W13Y mutation and a GAMGS N-terminal tail (ligand)
chain: GAMGSYVNCSNMIDEIITHLKQPPLPLLDFNNLNGEDQDILMENNLRRPNLEAFNRAVKSLQNASAIESILKNLLPCLPLATAAPTRHPIHIKDGDWNEFRRKLTFYLKTLENAQAQQ
modifications: radioiodinated with 125I in the cell-surface binding assays (residue not stated)
notes: N-terminal tail arising from the expression plasmid, left after TEV cleavage; interleukin-3, human, residues W13 to Q125 of the mature peptide; numbers count on: the mature protein; also called wild-type IL-3; interleukin-3; source: E. coli BL21 CodonPlus (DE3)-RIPL, purified (HisTrap, TEV digest, SEC, reversed-phase); not shown: Nus, N-terminal, cleaved; 6xHis, N-terminal, cleaved

- Kd [10]: 1.6 nM
- Kd [11]: 17.8 nM
- Kd [12]: 2.98 nM
- Kd [13]: 0.94 nM
- Kd [14]: 0.43 nM
- Kd [15]: 0.35 nM
- Kd [16]: 0.065 nM
- Kd [17]: 0.14 nM
- proliferation of FDH cells co-expressing βc and IL3Rα D197L, ED50 of the IL-3 K116W dose–response [18]: 0.6 ng/mL
- proliferation of FDH cells co-expressing βc and IL3Rα SP2, ED50 of the IL-3 K116W dose–response [19]: 2.19 ng/mL
- proliferation of FDH cells co-expressing βc and IL3Rα C76A,C195A, ED50 of the IL-3 K116W dose–response [20]: 2.51 ng/mL
- proliferation of FDH cells co-expressing βc and wild-type IL3Rα, ED50 of the IL-3 K116W dose–response [21]: 0.37 ng/mL
B2: human IL-3 K116W, residues W13 to Q125 of the mature peptide with a W13Y mutation and a GAMGS N-terminal tail (ligand)
chain: GAMGSYVNCSNMIDEIITHLKQPPLPLLDFNNLNGEDQDILMENNLRRPNLEAFNRAVKSLQNASAIESILKNLLPCLPLATAAPTRHPIHIKDGDWNEFRRKLTFYLWTLENAQAQQ
modifications: radioiodinated with 125I in the cell-surface binding assays (residue not stated)
notes: N-terminal tail arising from the expression plasmid, left after TEV cleavage; interleukin-3, human, residues W13 to Q125 of the mature peptide; numbers count on: the mature protein; also called IL-3 K116W superkine; IL-3 superkine; source: E. coli BL21 CodonPlus (DE3)-RIPL, purified (HisTrap, TEV digest, SEC, reversed-phase); not shown: Nus, N-terminal, cleaved; 6xHis, N-terminal, cleaved
